Source: the nanobody polyreactivity screen of Harvey et al. (2022)

Test: yeast display, Sf9 membrane polyspecificity reagent, FACS + sequencing; frameworks hold sequencing errors
Outline: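 Galactose induction of a Saccharomyces cerevisiae BJ5465 synthetic nanobody display library ran 36–48 hours. The cells were then stained for 1 hour at 4 °C with 10% biotinylated, detergent-solubilized Sf9 membrane reagent, pulled down on streptavidin microbeads and FACS-sorted into low and high (top ~1%) gates on expression and reagent-binding fluorescence. Labels for polyreactivity follow the gate of origin.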

Sequence	polyreactivity (PSR sort gate)
QVQLVESGGGLVQAGGSLRLSCAASGRIIAYYAMGWYRQAPGKERELVAAISRRGGSTYYADSVKGRFTISRDNAKNTVYLQMNSLKPEDTAVYYCDTLTLESFSALYYWGQGTQVTVSS	low polyreactivity
QVQLVESGGGLVQAGGSLRLSCAASGRIIDRNAMGWYRQAPGKERELFAAISSSGSTNYADSVKGRFTISRDNAKNTVYLQMNSLKPEDTAVYYCAARWRYVLAAGTRPVSFDYWGQGTQVTVSS	low polyreactivity
QVQLVESGGGLVQAGGSLRLSCAASGRIIEYYAMGWYRQAPGKERELVAAISSGGSTYYADSVKGRFTISRDNAKNTVYLQMNSLKPEDTAVYYCNTRYVYTRGGPLKRDYWGQGTQVTVSS	high polyreactivity
QVQLVESGGGLVQAGGSLRLSCAASGRIIGAYAMGWYRQAPGKERELVARISWSGGTTYYADSVKGRFTISRDNAKNTVYLQMDSLKPEDTAVYYCAARYSYYVTGGISKYDYWGQGTQVSVSS	low polyreactivity
QVQLVESGGGLVQAGGSLRLSCAASGRIIGNNAMGWYRHAPGKERELVATISSRGGSTYYAESVKGRFTISRDNAKNTVYFQMNSLKPEDTAVYYCKAYTTLAYDLDYWGQGTQVTVSS	high polyreactivity
QVQLVESGGGLVQAGGSLRLSCAASGRIIGYYAMGWYRQAPGKERELGAAITRGGSTNYADSVKGRFTISRDNAKNTVYLQMNSLKPEDTAVYYCAADLARYGKRYDYWGQGTQVTVSS	low polyreactivity
QVQLVESGGGLVQAGGSLRLSCAASGRIIPGNAMGWYRQAPGKERELVAAISWGGGSTYYADSVKGRFTISRDNAKNTVYLQMNSLKPEDTAVYYCNAGVSIGRSRRYDYWGQGTQVTVSS	low polyreactivity
QVQLVESGGGLVQAGGSLRLSCAASGRIIQYNAMGWYRQAPGKERELVAAISWRSRRTYYADSVKGRFTISRDNAKNTVYIQMNSLKPEDTAVYYCAATSRTSWYGYWGQGTQVTVSS	high polyreactivity
QVQLVESGGGLVQAGGSLRLSCAASGRIIRDNAMGWYRQAPGKERELVAAISRRGGSTYYADSVKGRFTISRDNAKNTVYLQMNSRKPEDTAVYYCNKTTHSRTFRYDYWGQGTQVTVSS	low polyreactivity
QVQLVESGGGLVQAGGSLRLSCAASGRIIRPYAMGWYRQAPGKERDFVATIRFTTGRTYYADSVKGRFTISRDNAKNTVYLQMNSLKPDDTAVYYCAADFAFVNYAKISYTTHDYWGQGTQVTVSS	high polyreactivity
QVQLVESGGGLVQAGGSLRLSCAASGRIIRQYAMGWYRKAPGKERELVAVISAGGARTYYADSVKGRFTISRDNAKNTVYLQMNSLKPEDTEVYYCAAELPTSQYDYYYWGQGTQVTVSS	high polyreactivity
QVQLVESGGGLVQAGGSLRLSCAASGRIISINAMVWYRQAPGKERELVAAINSGGSTHYADSVKGRFTISRDNAKNTVYLQMNSLKPEDTAVYYCAARKTVSYFRVRTFDYWGQGTQVTVSS	low polyreactivity
QVQLVESGGGLVQAGGSLRLSCAASGRIISRYAMGWYRQAPGKERELVAAISRRGGSTYYADSVKGRFTISRDNAKNTVYLQMNSLKPEDTAVYYCAAVRRKTAGGLEDYWGQGTQVTVSS	high polyreactivity
QVQLVESGGGLVQAGGSLRLSCAASGRIISSYAMVWYRQAPGKETELVAAISWDGGSTYYADSVKGRFTISRDNANNTVYLQMNSLKPEDTAVYYCATDATRPWYDYWGQGTQVTVSS	low polyreactivity
QVQLVESGGGLVQAGGSLRLSCAASGRIISYNAMGWYRQAPAKERELVAAISWGGGSTYYADSVKGRFTISRDTAKNTVYLQMNSLKPEDTAVSYCAKGWYRIKRNDYWGQGTQVTVSS	low polyreactivity
QVQLVESGGGLVQAGGSLRLSCAASGRIISYNAMGWYRQAPGKERELVAAISWGGGSTYYADSVKGRFTISRDNAKNTVYLQLNSLKPEDTAVYYCAKGWYRIKRNDYWGQGTQVTVSS	low polyreactivity
QVQLVESGGGLVQAGGSLRLSCAASGRIITEYVTGCYTQAPGKERELDAAAITRGGSTNYADSVKGRFTLSRDNAKNTVYLQKNSLIPEDTAVYHCNKDDWPVSRQLYTGKHDSWGQGTQVTVSS	low polyreactivity
QVQLVESGGGLVQAGGSLRLSCAASGRIITKYTMGWYRQAPGKERELFAAISRSDRTNYADSVKGRFTISRDNAKNTVYLQMNSLKPEDTAVYYCNARHSYWTGRRVTDDYDYRGQGTQVTVSS	high polyreactivity
QVQLVESGGGLVQAGGSLRLSCAASGRIITRYTMGWYRQAPGKERELVASITSSGSSTYYADSVKGRFTISRDNAKNTFYLQMNSLKPEDTAVYYCAARSRLRYLYDYWGQGTQVTVSS	high polyreactivity
QVQLVESGGGLVQAGGSLRLSCAASGRIIVDNTMGWYRQAPGQEREFVAVITSGGSTNYADSVKGRYTISRDNAKNTVYLQMNCLNPEDTAVYYCATEPGGYRFDDRPFQFGYWGQGTQVTVSS	low polyreactivity
QVQLVESGGGLVQAGGSLRLSCAASGRIIVNNAMGWYRQAPGKERELVAAITRRGGSTYYADSVKGRFTISRDNAKNTVYLQMNSLKPEDTAVYYCARSNQRTVYVASDYWGQGTQVTVSS	high polyreactivity
QVQLVESGGGLVQAGGSLRLSCAASGRIIWKNTMGWYRQAPGKERELVAAITYGGSTNYADSVKGRFTISRDNAKNTVYLQMNSLKPEDTAVYYCNAQISWDSGWGYSYHLDYWGQGTQVTVSS	low polyreactivity

Sequence	polyreactivity (PSR sort gate)
QVQLVESGGGLVQAGGSLRLSCAASGRIIYKNAMGWYRQAPGKERELVAAITSSGGSTYYADSVKGRFTISRDNAKNTVYLQMNSLKPEDTAVYYCAAYAYGRFGKLNYWGQGTQVTVSS	low polyreactivity
QVQLVESGGGLVQAGGSLRLSCAASGRIIYPNAIGWYRQAPGKERELVAGITSRGGSTYYADSVKGRFTSSRDNAKNTVYLQMNSLKPEDTAVYYCAKRYYYFYPDYDYWGQGTQVTVSS	high polyreactivity
QVQLVESGGGLVQAGGSLRLSCAASGRIIYSNAMGWYRQAHGKERELVASISPNTGTTYYADSVKGRFTISLDNAKNTVYLQMNSLKPEDTAVYYCAARGGYYQDGLVTGEAEYGYWGQGTQVTVSS	low polyreactivity
QVQLVESGGGLVQAGGSLRLSCAASGRIKDNVMGWYRQAPGKERELVAAITRSAGRTYYADSVKGRFTISRDNAKNTVYLQMNSLKPEDTAVYYCAAQAERYGYEYWGQGTQVTVSS	low polyreactivity
QVQLVESGGGLVQAGGSLRLSCAASGRILAGYAMGWYRQAPGKERELVAVISVGTGSTYYADSVKGRFTISRDNAKNTVYLQMNSLKPEDTAVYYCAAVTAITSLRMGYWGQGTQVTVSS	low polyreactivity
QVQLVESGGGLVQAGGSLRLSCAASGRILASNVMGWYRQAPGKEREFVASITYSGSSTYYADSVKGRFTISRDNAKNTVYLQMNSLKPEDTAVYYCATRYGYSDGDYWGQGTQVTVSS	low polyreactivity
QVQLVESGGGLVQAGGSLRLSCAASGRILFGYAMGWYRQAPGKERELVADITSTGSTNYADSVKGRFTISRDNAKNTVYLQMNSLKPEDTAVYYCNARRESYYQRYRVDYWGQGTQVTVSS	low polyreactivity
QVQLVESGGGLVQAGGSLRLSCAASGRILFHYAMGGSRPAPGKERELVAAITWRGGGTHYADSVKGRFTISRDNAKNTVYLQMNSLKPEDNAVYYCAADGWTYVYDYGYWGQGTQVTVSS	low polyreactivity
QVQLVESGGGLVQAGGSLRLSCAASGRILFYYGMGWYRQAPGKERELVAAISKRGGSTYYADSVKGRFTISRDNAKNTVYLQMNSLKPEDTAVYYCAAVQPAWGNGYWGQGTQVTVSS	high polyreactivity
QVQLVESGGGLVQAGGSLRLSCAASGRILGAYAMGWYRQPPGKERELVASISSGGRTYYADSVKGRFTISRDNAKNTVYLQMNSLKPEATAVYYCAKKKQLSVPASGYDYVYYWGQGTQVTVSS	high polyreactivity
QVQLVESGGGLVQAGGSLRLSCAASGRILGNNVMGWYRQAPGKERELVAAITSSGGRTYYADSVKGRFTISRDNAKNTVYLQMNSLKPEDTAVYYCAAERRYYGKFNYWGQGTQVTVSS	high polyreactivity
QVQLVESGGGLVQAGGSLRLSCAASGRILGQYVMGWYRQAPGKERELVASIRSGGVSTYYADSVKGRFTISRDNAKNTVYLQMNSLKPEDTAVYYCAKGSPGPRRYKFDYWGQGTQVTVSS	low polyreactivity
QVQLVESGGGLVQAGGSLRLSCAASGRILGYYAMGWSRQAPGKEREFVAAITTRGGNTYYADSVKGRFTISRDNAKNTVYLQMNSLKPEDTAVYYCAAESYTYRDAPTYFTRMYYWGQGTQVTVSS	high polyreactivity
QVQLVESGGGLVQAGGSLRLSCAASGRILHANAMGWYRQAPGKEREFVAAISVSGVSTYYADSVKGRFTISRDNAKNTVYLQMNSLKPEDTAVYYCNAETYSWYDYWGQGTQVTVSS	high polyreactivity
QVQLVESGGGLVQAGGSLRLSCAASGRILKWNARGWYRHAPGKERELVAAISQSGGSTYYADSVKGRFTISRDNAKNTVYLQMNSLKPEDTAVYYCAARRGSKFWGQGTQVTVSS	low polyreactivity
QVQLVESGGGLVQAGGSLRLSCAASGRILKYYDMGWYRQAPGKERELVAAISVSGTSTYYADSVKGRFTISRDNAKNTVYLQMNSLKPEDTAVYYCATATGRYSFDYWGQGTQVTVSS	low polyreactivity
QVQLVESGGGLVQAGGSLRLSCAASGRILKYYDMGWYRQAPGKERELVAAISVSGTSTYYADSVKGRFTISRDNAMNTVYLQMNSLKPEVTAVYYCATATGRYSFDYWGQGTQVTVSS	low polyreactivity
QVQLVESGGGLVQAGGSLRLSCAASGRILKYYDMGWYRQAPGKETELVAAISVSGTSTYYADSVKGRFTISRDNAKNTVYLQMNSLKPEDTAVYYCATATGRYSFDYWGKGTQVTVSS	low polyreactivity
QVQLVESGGGLVQAGGSLRLSCAASGRILNSYAMGWYRQAPGKEREFVAAIRRSRGSPYYADSVKGRFTISRDNAKNTVYLQMNSLKPEETAVYYCAAGRRYSGSYDYWGQGTQVTVSS	high polyreactivity
QVQLVESGGGLVQAGGSLRLSCAASGRILPSNAMGWYRQSPGKERELVATISSSGGDTYYADSVKGRFTISRDNAKNTVYLQMNSLKPEDTAGYYCAADSTWEGGYKYEYWGQGTQVTVSS	low polyreactivity
QVQLVESGGGLVQAGGSLRLSCAASGRILPYYAMGWYRQAPGKERELVAAISYSGGSTYYADSVKGRFTLSRDNGKNTFYLQMNSLKPEDTAVYYCNARPVKASYVGYNYWGQGTQVTVSS	high polyreactivity
